Test results taken from the supplement of paper PMC10567573.

B1: PDLIM4 (parent)
chain: FLDERLYCESHAKARVKPPEGYDV

Variants of: B1
Assay: protein stability index of a GFP-peptide fusion (GPS, HEK-293T) (PSI 1-6); higher = more stable
Conditions: c terminus: a fixed tail appended
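Further: lentivirally expressed fusions sorted by FACS into six bins by GFP to DsRed ratio, PSI derived from sequencing read proportions per bin multiplied by bin number.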

Protein stability index: each site, then its substitutions
Y7: D 4.71; T 5.4; S 3.89; L 3.18; N 4.26; E 4.06; C 3.66; H 4.05; A 2.63; K 4.06; M 3.6; V 3.85; R 3.99; I 3.6; P 4.5; F 2.79
Y22: D 1.53; A 1.32; C 2.75; R 2.71; T 2.29; M 1.37; G 2.68; K 2.46; S 1.04; P 3.32; L 1.15; W 1.28; F 1.43
A12: C 1.23; R 1.82; D 2.48; Q 1.37; F 3.29; N 1.42; T 2.04; I 1.6; S 1.42; H 1.77; G 2.68; Y 1.77; L 1.28
F1: W 2.5; D 4.34; L 3.89; Q 4.58; P 5; K 4.43; A 4.23; V 3.92; C 3.43; H 4.26; R 4.28; M 4.29; S 4.63; I 4.27; E 4.68; T 4.72; Y 1.3; N 4.21
K13: H 2.18; Q 1.61; D 1.32; Y 2.63; N 1.36; L 1.45; P 2.24
L6: N 3.08; D 4.54; G 3.42; V 1.59; M 2.87; Q 2.5; S 2.47; P 1.7; T 2.55; R 1.45; I 1.97; E 3.09; F 3.03
A14: L 1.75; G 2.7; R 2.57; I 2.02; S 2.01; M 1.76; N 1.39; K 1.07; Q 2.29; H 2.56; D 1.36; Y 2.23
D3: Q 1.53; R 2.32; I 1.94; E 1.94; F 2.66; C 3.79; V 2.5; M 1.48; L 2.27; G 1.92; P 2.64; K 2.49; N 1.21; A 2.14; S 1.03; T 1.31; H 2.39
H11: D 2.39; L 1.48; Q 1.34; I 2.19; C 1.04; R 1.79; M 2.23; F 1.48; E 1.34; S 1.98; A 1.85; N 1.86; K 1.64; V 1.72; T 1.99
V24: M 2.12; Y 1.6; R 1.99; T 1.53; D 1.33; E 1.6; H 1.63; A 2.09; G 1.51; I 2.47; W 1.91; Q 1.11; C 1.71; N 2.32; P 2.53
L2: C 1.96; D 4.28; W 2.47; R 2.96; F 3.46; M 1.67; G 3.4; V 2.42; K 3.99; Q 2.12; A 1.81; I 1.38; T 2.54; H 2.24; S 3.37; P 2.98
R15: E 1.34; D 1.93; G 1.7; N 1.53; A 2.13; P 1.26; Q 2.41; C 1.97; W 3.92; M 1.18; V 1.77; H 3.03; Y 1.58; K 2.18; L 2.41; F 2.33; I 2.03
P19: R 2.65; G 2.01; K 2.31; L 2.26; S 1.11; M 1.77; T 2.29; W 2.75; Y 1.43; F 1.93; E 1.05; D 2.15; C 2.26; I 1.86
P18: A 2.82; F 2.16; S 2.52; Q 2.38; I 1.01; V 1.96; D 1.36; G 1.75; R 2.41; M 1.1; H 1.69; N 1.54; T 1.71; E 1.75
C8: F 2.3; L 2.26; I 1.41; R 1.81; K 1.58; H 2.71; W 2.14; Y 2.17; D 3.78; A 1.53; T 2.62; Q 2.44; M 1.64; E 3.52
D23: N 2.3; F 1.73; T 2.03; I 1.81; S 2.85; K 2.53; H 3.11; Q 2.23; Y 2.45; A 1.48; G 1.14; W 1.81
E9: K 1.42; T 1.31; Y 2.13; D 1.8; S 1.97; G 1.74; A 1.57; N 2.58; H 2.13; F 1.49; M 2.41; Q 1.44; W 1.22; L 2.34; V 1.83
S10: A 1.44; C 1.95; G 1.97; K 2.12; M 2.54; P 2.32; Q 1.88; V 1.4; L 2.69; E 2.1; H 1.58; F 1.61; Y 2.75; N 1.26; T 1.79
K17: L 2.56; E 2.08; H 1.88; F 2.12; Y 1.66; V 2.62; A 1.91; C 1.99; S 1.48; Q 1.86; N 1.87; M 2.53; I 1.33
V16: S 3.79; R 1.5; D 2.14; W 2.7; K 3.09; C 1.43; P 1.64; T 3.71; I 1.62; G 1.57; H 1.92; A 1.75; N 1.96; Y 1.51
E4: S 5.15; C 3.33; D 1.71; L 2.34; R 3.33; V 2.06; Y 2.02
R5: G 2.47; D 2.11; Y 1.42; A 1.86; K 1.66; E 2.42; P 2.98; M 2.33; F 1.52; T 1.3; N 1.49; W 3.09; L 1.98; S 2.37; V 2.35
G21: A 1.83; M 2.4; W 1.49; H 1.59; P 1.8; S 1.69; V 2.34; D 2.94; E 2.62; F 1.72; Y 2.09; L 1.77; K 1.63; Q 2.4; T 2.14; C 1.89
E20: G 2.67; V 3; D 1.74; S 1.4; L 1.1; I 2.65; H 2.82; T 2.26; A 2.53; M 2.03; N 2.28; Q 3.09; P 3.31
